Data from the DeepSol protein solubility set.

Test: soluble on expression in E. coli; label from the status in PepcDB or PDB records

| Sequence | soluble on expression in E. coli |
| --- | --- |
| MGSDKIHHHHHHMANKIKVLLTGAGSTLGREILAQLLTMRKVFEISVLDIKRGHTMAFFEKYKKEIHIFYGDCSVQDNTVEACKGQDFVIHCQSLEKANADKRLRLAEDVNTMGTRYIIENLERFSPGAYLLYISTVGVYGDRLKAPMISADNMTCPSMGDYDALTKLQAEKLVQESSLEWTIYRPGIILGHDSSLLNSSVFCMPLATRFETVHIRDLASACVKAYDHKASLWGRTYNVGGGEACRIVYSDYIRRLFKLLGLGYPEFPDRAFATRNRFGGYFADGDALEAILHFRRHTIEDYFKELAAQQPILKKLANKIFVGVQRKSLEGKSAPLRAIKENDRAKKKYYF | not soluble |
| MKTLLSLGHGYSAQALAHRLLPQGWTVIGTTRSAAKAAELEAGGIEPLLWPGDLGPALARASHILASAAPGREGDPFLATHGAELARADARWVGYLSTTGVYGDHAGGWVDEDTPLTPSTERGQARVQAERQWQALGLPLHIFRLAGIYGPGRGPFEKVRDGTARRIVKPGQVFSRIHVADIAQVLEASMQHPEPGAIYNVCDDDPAPPEDVLGYAAELLGLPPPPEVPYDEAEMTPMARSFYAESKRVRNDRIKARLGIALLHPDYRSGLRSLLAGGD | not soluble |
| MVKFMAIGTPLLKGSIKFLLLGSGELGKEVVIEAQRLGIECIAVDRYQNAPAMQVAHKSYVIDMKDYDALMAIIEREEPDYIVPEIEAINTDALIDAEKMGYTVIPTAEATKITMNRELIRRLAAEKLGLKTAKYEFADSLEELRDAVEKLGLPCVVKPIMSSSGKGQSVVRSEEDIEKAWKIAKEGARGIGNRVIVEEFINFDYEITLLTARTAEGTKFCEPIGHVQIDGDYHESWQPHNMSAELKEQAQDIAKKVTDALGGYGIFGVELFVKGDEVIFSEVSPRPHDTGMVTMITQEMSEFEIHVRAILGLPVSTKLIHPGASHVIKAEINKYAPKYHIEDALKVPNTKLRLFGKPNAKVGRRMGVALAYADSVEKARELAEKCAHAVRIE | soluble |
| MAHHHHHHMNILHKIFTPGSKSKKTLLHCDAELGDRQSHSSSKVSTAVQVKSKLTAASSDDDDCGPLMRSVSMTVVSDPVPSSFKTNSSFANQSRPTQGPASFKSARLANSFSNASCHLERHHQHTAALASSVSRHNQRSLFDKIHSSGSFAVGETTVSGGSFTANGGTVNLWRLPWTQQKVTMCPNCHRPRQRDRTMQVSRASYTLQETTIENGMGDDMSEANEDMSYSDSEGMGGPMSDSVTCRCGVVSEGDAPLDYDDSAEATEEHPKLFVVETQNPSAVQLPGTIAEASDSEGEGREDVRRSYKLSLVSSPTPTSLRRRAPRVQPLLSGASPQTNTASVPKRVTHWLHEQQTSEARVVLKPKAAR | not soluble |
| MGHHHHHHSHMDPDTFTFNFNNDPLVLRRRQTYLCYEVERLDNGWMVLMDQHMGFLCNEAKNLLCGFYGRHADWRFLDLVPSLQLDPAQIYRVTWFISWSPCFSWGCAGEVRAFLQENTHVRLPIFAARIYDYDPLYKEALQMLRDAGAQVSIMTYDEFEYCWDTFVYRQGCPFQPWDGLEEHSQALSGRLRAILQNQGN | not soluble |
| QLPTIYAITPTYSRPVQKAELTRLANTFRQVAQLHWILVEDAAARSELVSRFLARAGLPSTHLHVPTPRRYKRPGLPRATEQRNAGLAWLRQRHQHQRAQPGVLFFADDDNTYSLELFQEMRTTRKVSVWPVGLVGGRRYERPLVENGKVVGWYTGWRADRPFAIDMAGFAVSLQVILSNPKAVFKRRGSQPGMQESDFLKQITTVEELEPKANNCTKVLVWHTRTEKVNLANEPKYHLDTVKIEV | soluble |
| DRKAVLNAAEQHFSGWKELYLCLVDRDTQGGLVVETGGPLTFSEAERAAADWAWQHDQPAGSGTGTLPSGRWWWWPITAEEGPLALLGVCAREGQSFTDQHRRLLAALTQPLAQALARAQLAQELEAARLHGETEQLRSALLASVSHDLRTP | not soluble |
| MEAKLQVGVLGFGTVGSGVIHILEEHQEKISQVTGYHISVKKVLVRDLEKNRRYETKGFELTTNPSDVLDDPEIAVVVEVMGSITTAREYILQALKAGKHVVTANKDLIALHGDELVAVAQANNCDLFYEASVAGGIPILRTIVNSLAADKIQKVMGIVNGTTNFMLTKMTTEKKSYEEVLAEAQALGFAESDPTNDVDGIDAARKMVIMTRLAFGMNVNLDNVETSGIRGISPEDIEVAYQLGYKIKLVGTAEETNGTVNVNVGPVLLPKAHPLAGVNYENNAVFVTGAAVGETMFYGPGAGELPTATSVVSDLITVAKNSRLGTNGNAFNSYKHETKHTPKEQVFSKYYLRLTMDDKTGTFLKLTQIFAEAGVGFDKILQQPYDDFTATVVIVTHSTSQAQLEQAITRVKNEPEMQMLAKYSVVEG | soluble |
| MGSDKIHHHHHHMKEYIMSFFNAPVTNKIPTCICSVAGLHTYISTNPQLEELTRKVRAGLGDKQVFRKNKQTLLPYVTPAGIFSYCKEQCMQVPSGLFVIDIDELASTEEAAMWRDRLFADEVLHPVLSFVSPGNQGVKLFIPYRINPFLSVEESFDNALHTAWEYLEWKYELKVDRANADLSRACFLSHDGEAKINNHKY | not soluble |
| MGSDKIHHHHHHMRNPDIGIDDLTALFIADTPLIDVRAPVEFTQGSLPGAVNLPILNDEERALVGTTYKQQGSEAAIKLGYEMVSGSVKQNRLQQWLDFIHQHPRAILYCFRGGKRSQITQQWLRDTGIDSPLITGGYKRARQFLISTIDRFSEHRKLLVITGPTGSGKTRLIHDISNSHPVLDIEALARHRGSAFGGMSVPQPSQIDFENHLAVNLLKLEQNNLSEPVIVEDESRHTGKVYLPDSFFHHLRNSEIIWVDEPLATRVDNIFEDYILTTPIGQAQRIRQAIPPLASTVETREILRQQARQLFDKYAGALQAISKKLGGDRFQEVSEDLENARSDFENKNEIQSNKIWIEKLVRYYYDPLYLGSLQRRRVNPCFKGSGQAVMDYLQARK | not soluble |
| MSLANDDLQQRLDKGMYGTPLVNPEEQHKYMGTFRERCRLSMTVAEMKDAQNQKHLLEELAKHPEVTVLLNGEISSDLQSTYIKLLNQHGANFKIVNNFVENNPDSLGLLLAEKHAVDEPVIDVTEKYPQATETPKEEPTAKKSFWQKLFHSEGHHHHHH | soluble |
| MSQKRQTKFQNGKSKTSENSSAKREKGMVVNSKEISDAVGQSKFVLENLRHYTVHPNLAQYYKPLKATALQKFLAQNRKNTSFMLKVTQYDQDKTLLIMTNNPPPCSITQQDKESASKYFSKELLLKVMESHHQHKPTENLWLPRMPQKKKLRSKLKPIFPLILSDDPTSKREQWFRFSTDNDFKSEGKYSKVYALRTQKKMYPQLTFAPVHERDMRKDASKKSASERPISKVIREPLTLASLLEDMPTRTAPGESAFRNGRAPQWIIKKATVIG | soluble |
| MGWPVISGDYIVGDPKSPVAVVTLASDYQSLNLKNYAICGTCFTENFGIEKVIVNVLSNPRISCLVVCGQESDHFAGQSLLALAENGVSAFGGSKRIIGSEGVIPYLDDIPATAISRFLREIEVIDLVGTTDPAVIQQAIDSCSGKERGEAPELSMPEINEHSWKKYEPEVKKNIMSKIKK | not soluble |
| MKILLEVKYMTKFQVAYVPVGVPTFHLESAQKEFEKSIDLLNTITDAAIVPDKMLLSIQDLTNFLDTIEPSLIILQNITFANAAYASEVLKRFSCPVLLWTLREPVIDGGRLRLNSLTGAYSAGNALAAFRDGNFEYIFGAPQEERTKKTISACIRAAWLKNELKNLRIASVGHTPQGFGFGRAMDADMQKVFGATLESIEVRELIDMAKGYTDDECSEYLDKMTKCTVGLDKTPDNNRKDFARLCKAYKEYVDENNIGALSSRCWPDFFTAFGTPVCGVLAMLNDMGVAASCEADTYGALSMYMGMKLSEQAVFFGDPVSLDESENTITFWHCGTAACSIAREDTGATIGVHPNRKIGPVMDFGCKAADKVTVFRVGQKADGSFRFFVTTGSALDKPKQFCGTSIVVRTDKNSYDIVNQSVKDGWEPHFVVIYGDCSDELKVLGHMLEIEVCEY | not soluble |
| SAAETRNVAGAEAPPPQKRYYRQRAHSNPMADHTLRYPVKPEEMDWSELYPEFFAPLTQNQSHDDPKDKKEKRAQAQVEFADIGCGYGGLLVELSPLFPDTLILGLEIRVKVSDYVQDRIRALRAAPAGGFQNIACLRSNAMKHLPNFFYKGQLTKMFFLFPDPHFKRTKHKWRIISPTLLAEYAYVLRVGGLVYTITDVLELHDWMCTHFEEHPLFERVPLEDLSEDPVVGHLGTSTEEGKKVLRNGGKNFPAIFRRIQDPVLQAVTSQTSLPGH | soluble |
| MKITVIGAGNVGATTAFRLAEKQLARELVLLDVVEGIPQGKALDMYESGPVGLFDTKVTGSNDYADTANSDIVVITAGLPRKPGMTREDLLSMNAGIVREVTGRIMEHSKNPIIVVVSNPLDIMTHVAWQKSGLPKERVIGMAGVLDSARFRSFIAMELGVSMQDVTACVLGGHGDAMVPVVKYTTVAGIPVADLISAERIAELVERTRTGGAEIVNHLKQGSAFYSPATSVVEMVESIVLDRKRVLTCAVSLDGQYGIDGTFVGVPVKLGKNGVEHIYEIKLDQSDLDLLQKSAKIVDENCKMLDASQG | soluble |
| MSLSIPADIASLISDKYKSAFDNGNLKFIQTETTKTKDPKTSMPYLISHMPSLIEKPERGQTPEGEDPLGKPEEELTVIPEFGGADNKAYKLLLNKFPVIPGHTLLVTNEYQHQTDALTPTDLLTAYKLLCALDNEESDKRHMVFYNSGPASGSSLDHKHLQILQMPEKFVTFQDRLCNGKEHFLPTFNTEPLQDAKVSFAHFVLPMPESEETVDEDLLAMCYISILQRALTFFQDWLNENPELKKSYNLMLTKEWICVVPRSKAFSDEMKIGFNSTGYCGMILTKNDEVFSKITEKPELINDILLECGFPNTSGQKPNEYNYEGHHHHHH | soluble |
| MVSLDKAVIARLRKGGEEFEVLVDPYLARDLKEGKEVNFEDLLAAEEVFKDAKKGERASVDELRKIFGTDDVFEIARKIILEGEVQITAEQRREMLEAKRKQIINFISRNTIDPRTNAPHPPSRIERALEEAKVHIDIFKSVEAQVKDIVKALKPILPLKFEEMEIAIKIPPEHTGRAISALYNFGGVTREEWQRDGSWICVMRIPSGMYGDLMDLLGKVAKGEALTKVLRRIG | not soluble |
| MGSDKIHHHHHHMLKIGPIEMKNQVVLAPMAGVCNPAFRLIAKEFGAGLVCAEMVSDKAILHKNEKSLSMLYVDEREKPLSLQIFGGEKETLVEAAKFVDKNTNADIIDINMGCPVPKITKCDAGARWLLDPNKIYDMVSAVVDEVDKPVTVKMRIGWDEEHIYAVENAQAVERAGGAAVAVHGRTRVQMYEGTADWNIIREVKQAVGIPVIGNGDVKTPQDAKRMLDEIGVDGVMIGRAALGNPWMLYRTIHYLETGELLPDPTPREKMDVCMIHLDRLIKLKGENVAVREMRKHAAWYLKGLRGNGKIRDQINQFETREDVSSTLYAYIEELEAKMAEKSASVV | not soluble |
| MSAGPIVERNQDATIYVGGLDEKVSESILWELMVQAGPVVSVNMPKDRVTANHQGFGFVEFMGEEDADYAIKILNMIKLYGKPIKVNKASAHEKNMDVGANIFVGNLDPEVDEKLLYDTFSAFGVILQVPKIMRDVDSGTSKGFAFINFASFEASDTALEAMNGQFLCNRAITVSYAFKRDSKGERHGTAAERMLAAQNPLFPKDRPHQVFSDVPLGVPANTPLAMPGVHAAIAAHATGRPGYQPPPLMGMAQSGYQGQYPPVPPPPPSVTPMPPPMPPTPGMTPRPPPPPSSGMWPPPPPPPPGRTPGPPGMPGMPPPPPPSRFGPPGMGGMPPPPPPGMRYPGGMPPPPPPRYPSAGPGMYPPPPPSRPPAPPSGHGMIPPPPPPS | not soluble |
